Results taken from patent US20080159996.

Assays:
Assay in all cases: cell_activity
[1] = system: ZFN 8196z-FokI E490K/I538K (ZFN224 pair member) (synthetic)
[2] = system: ZFN 8196z-FokI wt (ZFN215 and ZFN201 pair member) (synthetic)
[3] = system: ZFN 8266-FokI Q486E/I499L (ZFN224 pair member) (synthetic)
[4] = system: ZFN 8266-FokI wt (ZFN201 pair member) (synthetic); details: pair ZFN201 with 8196z, PM1 cells, plasmid electroporation
[5] = system: ZFN 8267-FokI wt (ZFN215 pair member) (synthetic); details: pair ZFN215 with 8196z, CD4+ T-cells, MOI 100, Cel-1 assay; 31.2% in PBMCs
[6] = pair ZFN224, CD4 T cells, conditions giving 35.6% CCR5 modification, Surveyor nuclease

AAACTGCAAAAG (double strand) [CCR5 168 half-site]
activity (% CCR5 alleles modified) ([1]; pair ZFN224, CD4+ T-cells, MOI 100, Cel-1 assay, 48.4% in Example 4): 14.9
activity (% CCR5 alleles modified) ([2]; pair ZFN201 with 8266, PM1 cells, plasmid electroporation): 2.4
activity (% CCR5 alleles modified) ([2]; pair ZFN215 with 8267, CD4+ T-cells, MOI 100, Cel-1 assay, 31.2% in PBMCs): 32.3

CCR2 off-target site
activity (% CCR2 alleles modified) [1, 6]: 4.1
activity (% CCR2 alleles modified) [3, 6]: 4.1

GATGAGGATGAC (double strand) [CCR5 r162 half-site]
activity (% CCR5 alleles modified) ([3]; pair ZFN224 with 8196z, CD4+ T-cells, MOI 100, Cel-1, Examples 14 and 17 state 8266 in ZFN224 but Example 1 states 8267): 14.9
activity (% CCR5 alleles modified) [4]: 2.4
activity (% CCR5 alleles modified) [5]: 32.3
